{
  "source": "ChEMBL document CHEMBL1275330",
  "about": "“Rational design, synthesis, and evaluation of new selective inhibitors of microbial class II (zinc dependent) fructose bis-phosphate aldolases” (J Med Chem, 2010)",
  "proteins": {"B1": {"name": "Fructose-bisphosphate aldolase (Candida albicans (strain SC5314 / ATCC MYA-2876) (Yeast)), Q9URB4 (protein)", "chain": "MAPPAVLSKSGVIYGKDVKDLFDYAQEKGFAIPAINVTSSSTVVAALEAARDNKAPIILQTSQGGAAYFAGKGVDNKDQAASIAGSIAAAHYIRAIAPTYGIPVVLHTDHCAKKLLPWFDGMLKADEEFFAKTGTPLFSSHMLDLSEETDDENIATCAKYFERMAKMGQWLEMEIGITGGEEDGVNNEHVEKDALYTSPETVFAVYESLHKISPNFSIAAAFGNVHGVYKPGNVQLRPEILGDHQVYAKKQIGTDAKHPLYLVFHGGSGSTQEEFNTAIKNGVVKVNLDTDCQYAYLTGIRDYVTNKIEYLKAPVGNPEGADKPNKKYFDPRVWVREGEKTMSKRIAEALDIFHTKGQL"}, "B2": {"name": "Fructose-bisphosphate aldolase (Mycobacterium tuberculosis), P9WQA3 (protein)", "chain": "MPIATPEVYAEMLGQAKQNSYAFPAINCTSSETVNAAIKGFADAGSDGIIQFSTGGAEFGSGLGVKDMVTGAVALAEFTHVIAAKYPVNVALHTDHCPKDKLDSYVRPLLAISAQRVSKGGNPLFQSHMWDGSAVPIDENLAIAQELLKAAAAAKIILEIEIGVVGGEEDGVANEINEKLYTSPEDFEKTIEALGAGEHGKYLLAATFGNVHGVYKPGNVKLRPDILAQGQQVAAAKLGLPADAKPFDFVFHGGSGSLKSEIEEALRYGVVKMNVDTDTQYAFTRPIAGHMFTNYDGVLKVDGEVGVKKVYDPRSYLKKAEASMSQRVVQACNDLHCAGKSLTH"}, "B3": {"name": "Fructose-bisphosphate aldolase (Helicobacter pylori (strain ATCC 700392 / 26695) (Campylobacterpylori)), P56109 (protein)", "chain": "MLVKGNEILLKAHKEGYGVGAFNFVNFEMLNAIFEAGNEENSPLFIQTSEGAIKYMGIDMAVGMVKTMCERYPHIPVALHLDHGTTFESCEKAVKAGFTSVMIDASHHAFEENLELTSKVVKMAHNAGVSVEAELGRLMGIEDNISVDEKDAVLVNPKEAEQFVKESQVDYLAPAIGTSHGAFKFKGEPKLDFERLQEVKRLTNIPLVLHGASAIPDNVRKSYLDAGGDLKGSKGVPFEFLQESVKGGINKVNTDTDLRIAFIAEVRKVANEDKSQFDLRKFFSPAQLALKNVVKERMKLLGSANKI"}, "B4": {"name": "Fructose-bisphosphate aldolase class II (Yersinia pestis), A0A380PJR2 (protein)", "chain": "MSKIFDFVKPGVITGDDVQKVFAVAKENNFALPAVNCVGTDSINAVLETAAKVRAPVIVQFSNGGAAFIAGKGVKTDAPQGAAILGAISGAHHVHQMAEHYGVPVILHTDHCAKKLLPWLDGLLDAGEKHFAATGKPLFSSHMIDLSEESLEENIEICSKYLTRMSKIGMTLEIELGCTGGEEDGVDNSHMDASSLYTQPQDVDYAYEKLNAISPRFTIAASFGNVHGVYKPGNVKLTPTILRDSQDYVSKKHNLPHNSLNFVFHGGSGSTAEEIKEAVSYGVVKMNIDTDTQWATWEGILNYYKKNEGYLQGQLGNPEGADKPNKKYYDPRVWLRAAQVTMITRLELAFKELNAIDVL"}, "B5": {"name": "Fructose-bisphosphate aldolase A (Oryctolagus cuniculus), P00883 (protein)", "chain": "MPHSHPALTPEQKKELSDIAHRIVAPGKGILAADESTGSIAKRLQSIGTENTEENRRFYRQLLLTADDRVNPCIGGVILFHETLYQKADDGRPFPQVIKSKGGVVGIKVDKGVVPLAGTNGETTTQGLDGLSERCAQYKKDGADFAKWRCVLKIGEHTPSALAIMENANVLARYASICQQNGIVPIVEPEILPDGDHDLKRCQYVTEKVLAAVYKALSDHHIYLEGTLLKPNMVTPGHACTQKYSHEEIAMATVTALRRTVPPAVTGVTFLSGGQSEEEASINLNAINKCPLLKPWALTFSYGRALQASALKAWGGKKENLKAAQEEYVKRALANSLACQGKYTPSGQAGAAASESLFISNHAY"}},
  "key": {"[1]": {"substrate": "O=C(COP(=O)(O)O)N(O)CCCCOP(=O)(O)O", "details": "Candida albicans"}, "[2]": {"substrate": "CCCCCCCCCCCC(=O)OCCCCN(O)C(=O)COP(=O)(O)O", "details": "Mycobacterium tuberculosis"}, "[3]": {"substrate": "CCCCCCCCCCCC(=O)OCCCCN(O)C(=O)COP(=O)(O)O", "details": "Helicobacter pylori"}, "[4]": {"substrate": "O=C(COP(=O)(O)O)N(O)CCCCOP(=O)(O)O", "details": "Helicobacter pylori"}, "[5]": {"substrate": "CCCCCCCCCCCC(=O)OCCCCN(O)C(=O)COP(=O)(O)O", "details": "Yersinia pestis"}, "[6]": {"substrate": "O=C(COP(=O)(O)O)N(O)CCCOP(=O)(O)O", "details": "Oryctolagus cuniculus"}, "[7]": {"substrate": "O=C(COP(=O)(O)O)N(O)CCCCOP(=O)(O)O", "details": "Oryctolagus cuniculus"}},
  "data": [
    {"protein": "B1", "values": [
      {"measurement": "Km", "setting": "[1]", "value": 100, "unit": "µM"}
    ]},
    {"protein": "B2", "values": [
      {"measurement": "Km", "setting": "[2]", "value": 0.31, "unit": "µM"}
    ]},
    {"protein": "B3", "values": [
      {"measurement": "Km", "setting": "[3]", "value": 4, "unit": "µM"},
      {"measurement": "Km", "setting": "[4]", "value": 0.07, "unit": "µM"}
    ]},
    {"protein": "B4", "values": [
      {"measurement": "Km", "setting": "[5]", "value": 0.234, "unit": "µM"}
    ]},
    {"protein": "B5", "values": [
      {"measurement": "Km", "setting": "[6]", "value": 264, "unit": "µM"},
      {"measurement": "Km", "setting": "[7]", "value": 15, "unit": "µM"}
    ]}
  ]
}
